According to patent CN116917323A:

Key:
[1] = biological target: T1, 人B7-H4 (细胞表面B7-H4) (human) (UniProt Q7Z7D3); experiment: flow cytometry on MX-1 cells
T1 sequence (looked up): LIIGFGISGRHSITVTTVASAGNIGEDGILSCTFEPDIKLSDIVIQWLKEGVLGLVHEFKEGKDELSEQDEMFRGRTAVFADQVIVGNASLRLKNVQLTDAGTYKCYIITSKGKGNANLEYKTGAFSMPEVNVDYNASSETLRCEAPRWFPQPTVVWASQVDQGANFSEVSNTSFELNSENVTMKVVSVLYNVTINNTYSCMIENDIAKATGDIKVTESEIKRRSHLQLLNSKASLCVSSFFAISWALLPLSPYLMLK

[2] = biological target: T2, 重组人B7-H4蛋白(R&D Systems#6576-B7-050) (human) (UniProt Q7Z7D3); experiment: BLI (Octet), antibody on anti-human Fc sensor, recombinant human B7-H4 as analyte, 25 °C
T2 sequence (looked up): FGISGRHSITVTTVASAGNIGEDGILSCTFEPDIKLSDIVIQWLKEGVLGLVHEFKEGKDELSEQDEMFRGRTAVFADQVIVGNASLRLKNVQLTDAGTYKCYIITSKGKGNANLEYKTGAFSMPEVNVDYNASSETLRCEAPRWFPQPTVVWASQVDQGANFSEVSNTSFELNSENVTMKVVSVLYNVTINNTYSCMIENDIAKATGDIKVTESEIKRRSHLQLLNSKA

[3] = biological target: T1, 人B7-H4 (细胞表面B7-H4) (human); experiment: flow cytometry on HCC1569 cells

EC50 [1]: 4.9 nM | K d, fold lower than that of B4-H4 2F9 [2]: > 100 fold | EC50 [3]: 3.44 nM
B1: 1D11抗体 (antibody, from another filing, V domains shown)
VH: QVQLQQSGAELVRPGTSVKMSCKASGYTFTSYWIGWAKQRPGHGFEWIGDIYPGGGYTNYNEKFKGKATLTADKSSSTAYMQFSSLTSEDSAIYYCARLDGSSYRGAMDSWGQGTSITVSS
VL: DIQMTQSPSSLSASLGGKVTITCKASQGFNKYVAWYQHKPGQCPRLLIHYTSTLQPGIPARFSGSGSGRDYSFSISNLEPEDSATYFCLQYGNLLYAFGGGTKLEIKR
